Assay results from patent US20220064302A1 (GIGAGEN, published 2022).
Where a chain is given by its changes, count along the chain named. Each block holds one binder with its values, some of them ahead of it.

Tests used:
[1] = target: T1, human PD-1 (soluble PD-1 protein, R&D Systems) (human, UniProt Q15116 25-170, limits assumed); experiment: BLI, mAb on AHC biosensor, PD-1 as analyte
T1 construct: the kinetics paragraphs say only 'PD-1' / 'antigen'; also called hPD-1; soluble PD-1 immunogen
Protocol: The binding specificity and affinity of each full-length antibody towards PD-1 were determined using BLI and/or SPR. […] Anti-cyno PD-1 affinity was measured using BLI.
(§1) For BLI, antibodies were loaded onto an Anti-Human IgG Fc (AHC) biosensor using the Octet Red96 system (ForteBio). Loaded biosensors were dipped into antigen dilutions beginning at 300 nM, with 6 serial dilutions at 1:3. Kinetic analysis was performed using a 1:1 binding model and global fitting.

[2] = target: T1, human PD-1 (soluble PD-1 protein, R&D …); experiment: BLI (ForteBio), mAb on AHC biosensor, PD-1 as analyte
Protocol: as §1

PD-1 expressed on cells = PD-1 expressed on cells (human, UniProt Q15116 25-288); experiment: cell-based or functional assay
PD-1 expressed on cells, sequence (Q15116 25-288 limits assumed): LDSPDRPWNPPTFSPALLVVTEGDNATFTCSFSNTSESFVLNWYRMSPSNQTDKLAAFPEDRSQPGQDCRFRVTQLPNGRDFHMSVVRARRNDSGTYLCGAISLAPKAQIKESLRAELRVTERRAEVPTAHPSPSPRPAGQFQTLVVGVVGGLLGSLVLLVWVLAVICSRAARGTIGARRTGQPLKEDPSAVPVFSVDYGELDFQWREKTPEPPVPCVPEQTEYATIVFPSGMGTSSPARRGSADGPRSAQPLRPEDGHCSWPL

[3] = target: T1, human PD-1 (soluble PD-1 protein, R&D …); experiment: array SPR (Carterra), mAb captured, PD-1 as analyte
Protocol: (§2) For SPR, a moderate density (»1,000 Response Units) of an antihuman IgG-Fc reagent (Southern Biotech 2047-01) was amine-coupled to a Xantec CMD-50M chip (50 nm carboxymethyldextran medium density of functional groups) activated with 133 mM EDC (Sigma) and 33.3 mM S-NHS (ThermoFisher) in 100 mM MES pH 5.5. Then, goat anti-Human IgG Fc (Southern Biotech 2047-01) was coupled for 10 minutes at […] in 10 mM Sodim Acetate pH 4.5 (Carterra Inc.). The surface was then deactivated with 1 M ethanolamine pH 8.5 (Carterra Inc.). Running buffer used for the lawn immobilization was HBS-EPC (10 mM HEPES, 150 mM NaCl, 3 mM EDTA, 0.05% Tween 20, pH 7.4; Teknova).
(§3) The sensor chip was then transferred to a continuous flow microspotter (CFM; Carterra Inc.) for array capturing. The mAb supernatants were diluted 50-fold ([…] final concentration) into HBS-EPC with 1 mg/mL BSA. The samples were each captured twice with 15-minute and 4-minute capture steps on the first and second prints, respectively, to create multiple densities, using a […] flow rate. The running buffer in the CFM was also HBS-EPC.
(§4) Next, the sensor chip was loaded onto an SPR reader (MX-96 system; Ibis Technologies) for the kinetic analysis. […] PD-1 injections were 5 minutes with a 15-minute dissociation at […] in a non-regenerative kinetic series. An injection of the goat anti-Human IgG Fc capture antibody at […] was injected at the end of the series to verify the capture level of each mAb. Binding data was double referenced by subtracting an interspot surface and a blank injection and analyzed for ka (on-rate), kd (off-rate), and KD (affinity) using the Kinetic Interaction Tool software (Carterra Inc.).

[4] = target: T1, human PD-1 (soluble PD-1 protein, R&D …); experiment: array SPR, mAb captured on anti-human IgG Fc, PD-1 as analyte
Protocol: as §2, §3, §4

T1 sequence (Q15116 25-170 limits assumed): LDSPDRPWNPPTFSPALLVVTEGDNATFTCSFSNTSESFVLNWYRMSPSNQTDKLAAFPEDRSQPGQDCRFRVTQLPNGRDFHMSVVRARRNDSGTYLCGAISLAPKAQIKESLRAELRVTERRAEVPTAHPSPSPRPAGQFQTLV

B1: A16 (antibody, V domains shown)
VH: QVQLVESGGGVVQPGRSLTLSCAASGFTFSNYGMYWVRQAPGKGLEWVAVIWYDGSNKYYADSVKGRFTISRDNSKNTLYLQMNSLRAEDTAVYYCAGGGSYSGDYWGQGTLVTVSS
VL: DIQMTQSPSSLSASVGDRVTITCRTSQDIRNDLGWYQQKPGKAPKRLIYAVSSLQSGVPSRFSGSGSGTEFTFTISSLQPEDFATYYCLQYNTYPFTFGPGTTVDIK
notes: Tested as full-length mAb expressed in CHO cells; also called antibody 16; L16H16
- Kd [1]: 86 nM
- Kd [2]: 86 nM
- koff [2]: 0.00655 s⁻¹
- kon [2]: 76100 M⁻¹ s⁻¹
- PD-1/PD-L1 blockage (IC50, µg/ml) (PD-1 expressed on cells): 0.556 µg/mL

B2: A17 (antibody, V domains shown)
VH: B1 VH with T19R, N31S, Y35H, K58Q, Y80F, Y95F, S101N, S103Y, Y106F
VL: B1 VL with T25A, D28G, V51A, F73L, N92I, T93S, F96W, P100Q, T103K, D105E
notes: Tested as full-length mAb expressed in CHO cells; also called antibody 17; L17H17
- Kd [1]: 326 nM
- Kd [2]: 326 nM
- koff [2]: 0.0079 s⁻¹
- kon [2]: 24200 M⁻¹ s⁻¹
- PD-1/PD-L1 blockage (IC50, µg/ml) (PD-1 expressed on cells): 0.533 µg/mL

B3: A1 (antibody, V domains shown)
VH: B1 VH with T19R, Y35H, A61T, S101N, S103Y
VL: DIQMTQSPSSLSASVGDRVTITCRASQGIRNDLGWYQQKPGKAPKRLIYVASSLQSGVPSRFSGSGSGTEFTLTISSLQPEDFATYYCLQHNSYPLTFGGGTKVEIKR
notes: Tested as full-length mAb expressed in CHO cells; also called antibody A1; L1H1
- Kd [3]: 3.7 nM
- koff [3]: 2.6e-05 s⁻¹
- kon [3]: 7000 M⁻¹ s⁻¹
- Kd [4]: 3.7 nM
- PD-1/PD-L1 blockage (IC50, µg/ml) (PD-1 expressed on cells): 2.39 µg/mL

B4: A3 (antibody, V domains shown)
VH: B1 VH with V11E, T19R, N31D, Y35H, S103W
VL: B3 VL with D32E, V50A, N92Y, S93I, L96W, G100Q
notes: Tested as full-length mAb expressed in CHO cells; also called antibody A3; L3H3
- Kd [3]: 230 nM
- koff [3]: 0.0024 s⁻¹
- kon [3]: 10000 M⁻¹ s⁻¹
- Kd [4]: 230 nM
- PD-1/PD-L1 blockage (IC50, µg/ml) (PD-1 expressed on cells): 1.34 µg/mL

B6: A2 (antibody, V domains shown)
VH: QVQLVESGGGVVQPGRSLRLSCAASGFTFSSYGMHWVRQAPGKGLEWVALISYDGSNKYYADSVKGRFTISRDNSKNTLYLQMNSLRAEDTAVYYCARGGYFDPYGDYYYGMDVWGQGTTVTVSS
VL: B3 VL with G28A, Y36F, V50A, S60L, Y94F, L96W, G100Q
notes: Tested as full-length mAb expressed in CHO cells; also called antibody A2; L2H2
- Kd [3]: 130 nM
- koff [3]: 0.011 s⁻¹
- kon [3]: 80000 M⁻¹ s⁻¹
- Kd [4]: 130 nM

B7: A23 (antibody, V domains shown)
VH: QVQLVESGGGVVQPGRSLRLSCVASGFTFSNYGMHWVRQAPGKGLEWVAIIWYDGSIKYYADSVKGRFTISRDNSKNTLHLQMNSLRAEDTAVYYCARWGIYFDYWGQGTLVTVSS
VL: EIVMTQSPATLSVSPGERATLSCRASQSVSSNLAWYQQKPGQAPRLLIYGASTRATGIPARFSGSGSGTEFTLTISSLQSEDFAVYYCQQYHNWPLTFGGGTKVEIK
notes: Tested as full-length mAb expressed in CHO cells; also called antibody 23; L23H23
- Kd [1]: 83.8 nM
- Kd [2]: 83.8 nM
- koff [2]: 0.00184 s⁻¹
- kon [2]: 22000 M⁻¹ s⁻¹
- PD-1/PD-L1 blockage (IC50, µg/ml) (PD-1 expressed on cells): 0.116 µg/mL

B9: A19 (antibody, V domains shown)
VH: QVQLVESGGGVVQPGRSLRLSCAASGFTFSNYGMYWVRQAPGKGLEWVAVIWYDGSNKYYADSVKGRFTISRDNSKNTLYLQMNSLRAEDTAVYYCAGGGDILTGDYWGQGTLVTVSS
VL: DIQMTQSPSSLSASVGDRVTITCRASQGIRNDLGWYQQKPGKAPKRLIYAASSLQSGVPSRFSGSGSGTEFTLTISSLQPEDFATYYCLQYKSYLYTFGQGTKLEIK
notes: Tested as full-length mAb expressed in CHO cells; also called antibody 19; L19H19
- Kd [1]: 57.1 nM
- Kd [2]: 57.1 nM
- koff [2]: 0.00107 s⁻¹
- kon [2]: 18700 M⁻¹ s⁻¹
- PD-1/PD-L1 blockage (IC50, µg/ml) (PD-1 expressed on cells): > 3.16 µg/mL

B10: A7 (antibody, V domains shown)
VH: QVQLVQSGAEVKKPGASVKVSCKASGYTFTSYGINWVRQAPGQGLEWMGWISAYNGNRNYAQNLQGRVTMTSDTSTNTAYMELRSLRSYDTAVYYCARDHYDILTGYYKGGFDYWGQGTLVTVSS
VL: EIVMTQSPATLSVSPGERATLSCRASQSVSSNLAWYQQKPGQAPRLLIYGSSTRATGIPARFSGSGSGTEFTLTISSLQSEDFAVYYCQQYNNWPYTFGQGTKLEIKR
notes: Tested as full-length mAb expressed in CHO cells; also called antibody A7; L7H7
- Kd [3]: 160 nM
- koff [3]: 0.002 s⁻¹
- kon [3]: 12000 M⁻¹ s⁻¹
- Kd [4]: 160 nM

B13: A5 (antibody, V domains shown)
VH: QVQLVESGGGVVQPGRSLRLSCAASGFTFSNYGTHWVRQAPGKGLEWVAVIWYDGSNKYYADSVKGRFTISRDNSKNTLYLQMNSLRAEDTAVYYCARDRIYCSSTRCIGFGYYYYGMDVWGQGTTVTVSS
VL: AIQLTQSPSSLSASVGDRVTITCRASQGISSALAWYQQKPGKAPKLLIYDASSLESGVPSRFSGSGSGTDFTLTISSLQPEDFATYYCQQFNNYPWTFGQGTKVEIKR
notes: Tested as full-length mAb expressed in CHO cells; also called antibody A5; L5H5
- Kd [3]: 35 nM
- koff [3]: 0.00023 s⁻¹
- kon [3]: 6400 M⁻¹ s⁻¹
- Kd [4]: 35 nM
- PD-1/PD-L1 blockage (IC50, µg/ml) (PD-1 expressed on cells): 1.31 µg/mL

The next lines start with results.

- Kd [1]: 13.8 nM
- Kd [2]: 13.8 nM
- koff [2]: 0.000972 s⁻¹
- kon [2]: 70400 M⁻¹ s⁻¹
- PD-1/PD-L1 blockage (IC50, µg/ml) (PD-1 expressed on cells): 0.528 µg/mL
B5: A27 (antibody, V domains shown)
VH: QVQLVQSGAELVRPGTSVKLSCRASGYTFTTYWMHWVKQRPGQGLEWIGVIDPSDSYTYYNQKFKGKATLTVDTSSSTAYMQLSSLTSEDSAVYFCARNWDYWGQGTTLTVSS
VL: AIQLTQSPSSLSASVGDRVTITCRASQGISSALAWYQQKPGKAPKLLIYDASSLESGVPSRFSGSGSGTDFTLTISSLQPEDFATYYCQQFNDYALTFGGGTKVEIK
notes: Tested as full-length mAb expressed in CHO cells; also called antibody 27; L27H27

- Kd [1]: 8.5 nM
- Kd [2]: 8.5 nM
- koff [2]: 0.00185 s⁻¹
- kon [2]: 217000 M⁻¹ s⁻¹
- PD-1/PD-L1 blockage (IC50, µg/ml) (PD-1 expressed on cells): 0.266 µg/mL
B8: A24 (antibody, V domains shown)
VH: QVQLVESGGGVVQPGRSLRLSCAASGFTFSDSGMHWVRQAPGKGLEWVAVIWYDGSKKYYVDSVKGRFTISRDNSKNTLYLQMNSLRAEDTAVYYCATEGDYWGQGTLVTVSS
VL: B7 VL with S14F, A34G, I48M, A55V, H92N, N93T, L96R, G100Q
notes: Tested as full-length mAb expressed in CHO cells; also called antibody 24; L24H24

- PD-1/PD-L1 blockage (IC50, µg/ml) (PD-1 expressed on cells): 1.31 µg/mL
B11: A11 (antibody, V domains shown)
VH: QVQLVQSGAEVKKPGASVKVSCRASGYTFTNYGISWVRQAPGQGLEWMGWISVYSDNTHYPQKLQGRVTMTTDTSTSTAYMELRSLRSDDTAVYYCARDGSHGDYYYVMDLWGQGTTVTVSS
VL: DIQMTQSPSSLSASVGDSITITCRASQGISSWLAWYQQKPEKAPKSLIYAASSLQSGVPSRFSGSGSGTDFTLTISSLQPEDFATYYCQQFNSYPYTFGQGTKLEIK
notes: Tested as full-length mAb expressed in CHO cells; also called antibody A11; L11H11
- binding result [4]: no binding (tested: PD-1 injected up to 500 nM)

- Kd [1]: 6 nM
- Kd [2]: 5.98 nM
- koff [2]: 0.00104 s⁻¹
- kon [2]: 174000 M⁻¹ s⁻¹
- PD-1/PD-L1 blockage (IC50, µg/ml) (PD-1 expressed on cells): 0.641 µg/mL
B12: A26 (antibody, V domains shown)
VH: QVQLVESGGGVVQPGRSLRLSCAASGFTFSDYGMHWVRQAPGKGLEWVAVIWYDGSNKYYTDSVKGRFTISRDNSKNTLYLQMSSLRAEDAAVYYCAVNPFDYWGQGTLVTVSS
VL: DIQMTQSPSSLSASVGDRVTISCRASQGISNYLAWYQQKPGKVPKVLIYGASTLQSGVPSRFSGSGSGTDFTLTISSLQPEDVATYYCQKYNSAPYTFGQGTKLEIK
notes: Tested as full-length mAb expressed in CHO cells; also called antibody 26; L26H26

- Kd [1]: 23.8 nM
- Kd [2]: 23.8 nM
- koff [2]: 0.00418 s⁻¹
- kon [2]: 176000 M⁻¹ s⁻¹
- PD-1/PD-L1 blockage (IC50, µg/ml) (PD-1 expressed on cells): 0.542 µg/mL
B14: A28 (antibody, V domains shown)
VH: QVQLVESGGGLVKPGGSLKLSCAASGFTFSDYGMHWVRQAPEKGLEWVAYISSGSFAIYYADTVRGRFTISRDSAKNTLFLQMTSLRSEDTAMYYCARRGPYPYYYSMDYWGQGTSVTVSS
VL: AIQMTQSPSSLSASVGDRVTITCRASQGISSALAWYQQKPGKAPKLLIYAASTLQSGVPSRFSGSGSGTDFTLTISSLQPEDFATYYCLQDYNYPWTFGQGTKVEIK
notes: Tested as full-length mAb expressed in CHO cells; also called antibody 28; L28H28
